For this series, the target named is MBP-mCherry-YY1 (Homo sapiens, UniProt P25490 1-414). Description: EMSA; 10 uM Zn2+, 100 mM KCl, no polyP; 2 uM protein, 25 nM probe; Motif EMSA: 10 mM Tris pH 7.5, 50 mM KCl, DTT, Tween 20, 5 mM MgCl2, ~25 nM probe, room temperature 30 min; G4 EMSA: 10 mM Tris-HCl pH 7.5, 100 mM KCl, 10 uM Zn, 1 mM DTT, 3% glycerol, room temperature 30 min; anisotropy: same without glycerol, on ice 30 min. As to conditions: protein: recombinant; tags: N-MBP-TEV, C-mCherry; label: 5' IRDye 700 on strand 1; G4 as stated by authors, annealed with S4 in 100 mM KCl; S3/S4 otherwise pair with mismatches.
Sequence of MBP-mCherry-YY1 (P25490 whole entry): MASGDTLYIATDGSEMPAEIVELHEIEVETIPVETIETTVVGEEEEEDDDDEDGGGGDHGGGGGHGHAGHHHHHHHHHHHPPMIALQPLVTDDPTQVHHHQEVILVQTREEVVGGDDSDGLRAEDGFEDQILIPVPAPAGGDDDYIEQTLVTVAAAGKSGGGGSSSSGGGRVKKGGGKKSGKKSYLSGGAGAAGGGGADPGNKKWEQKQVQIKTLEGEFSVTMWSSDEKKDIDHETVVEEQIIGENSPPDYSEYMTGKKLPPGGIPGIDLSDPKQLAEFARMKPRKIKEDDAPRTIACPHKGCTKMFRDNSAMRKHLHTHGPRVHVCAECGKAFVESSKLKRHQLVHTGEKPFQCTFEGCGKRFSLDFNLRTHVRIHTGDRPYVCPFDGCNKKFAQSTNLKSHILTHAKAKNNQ

B1: human telomere G4 (hTEL) probe (structured_DNA)
DNA 1: AAAGGGTTAGTGTTAGTGTTAGGGAA
DNA 2: TTCCCTAACCCTAACCCTAACCCTTT
Consider B1, for which the binding result is recorded as “binds”.

Values taken from publication PMC13202173, “Polyphosphate as a novel regulator of super-enhancer complexes: disruption of phase separation and gene expression”.
